{
  "source": "patent US20170137467A1",
  "key": {"BC2T K4E (human)": {"target": "T1, BC2T K4E (human)", "T1 sequence (peptide, N-terminal acetyl, C-terminal amide)": "PDREAAVSHWQQ", "assay": "library pulldown, LC-MS of supernatant; ratio vs GFP-Nb control (0=captured, 1=not captured)"}, "[1]": {"target": "mCherry tagged with the improved BC2T variations", "assay": "capture on the BC2 nanotrap, SDS-PAGE and Coomassie, FIG. 19a"}, "BC2T Q11P": {"target": "T2, BC2T Q11P", "T2 sequence (peptide, N-terminal acetyl; C-terminal amide)": "PDRKAAVSHWPQ", "assay": "positional peptide library pulldown on immobilised Nb, LC-MS of supernatant; signal ratio to control GFP-Nb (1 = not captured, near 0 = captured)"}, "BC2T S8D": {"target": "T3, BC2T S8D", "T3 sequence (peptide, N-terminal acetyl; C-terminal amide)": "PDRKAAVDHWQQ", "assay": "positional peptide library pulldown on immobilised Nb, LC-MS of supernatant; signal ratio to control GFP-Nb (1 = not captured, near 0 = captured)"}, "BC2T S8K": {"target": "T4, BC2T S8K", "T4 sequence (peptide, N-terminal acetyl; C-terminal amide)": "PDRKAAVKHWQQ", "assay": "positional peptide library pulldown on immobilised Nb, LC-MS of supernatant; signal ratio to control GFP-Nb (1 = not captured, near 0 = captured)"}, "BC2T R3Q": {"target": "T5, BC2T R3Q", "T5 sequence (peptide, N-terminal acetyl; C-terminal amide)": "PDQKAAVSHWQQ", "assay": "positional peptide library pulldown on immobilised Nb, LC-MS of supernatant; signal ratio to control GFP-Nb (1 = not captured, near 0 = captured)"}, "BC2T R3S": {"target": "T6, BC2T R3S", "T6 sequence (peptide, N-terminal acetyl; C-terminal amide)": "PDSKAAVSHWQQ", "assay": "positional peptide library pulldown on immobilised Nb, LC-MS of supernatant; signal ratio to control GFP-Nb (1 = not captured, near 0 = captured)"}},
  "data": [
    {"binder": "BC2-NbR106S (VHH, not shown: small tags and cut ends) VHH: QVQLVESGGGLVQPGGSLTLSCTASGFTLDHYDIGWFRQAPGKEREGVSCINNSDDDTYYADSVKGRFTIFMDNAKDTVYLQMNSLKPEDTAIYYCAEARGCKRGSYEYDFWGQGTQVTVSS", "values": [
      {"measurement": "ratio", "setting": "BC2T K4E (human)", "result": 0.9}
    ]},
    {"binder": "BC2 nanobody (VHH, not shown: small tags and cut ends) VHH: QVQLVESGGGLVQPGGSLTLSCTASGFTLDHYDIGWFRQAPGKEREGVSCINNSDDDTYYADSVKGRFTIFMDNAKDTVYLQMNSLKPEDTAIYYCAEARGCKRGRYEYDFWGQGTQVTVSS", "values": [
      {"measurement": "percent protein bound", "setting": "[1]", "result": "< 100", "unit": "%"},
      {"measurement": "ratio", "setting": "BC2T Q11P", "result": 0.6},
      {"measurement": "ratio", "setting": "BC2T S8D", "result": 0.8},
      {"measurement": "ratio", "setting": "BC2T S8K", "result": 0.8}
    ]},
    {"binder": "BC2-NbR106E (VHH) VHH: QVQLVESGGGLVQPGGSLTLSCTASGFTLDHYDIGWFRQAPGKEREGVSCINNSDDDTYYADSVKGRFTIFMDNAKDTVYLQMNSLKPEDTAIYYCAEARGCKRGEYEYDFWGQGTQVTVSS", "values": [
      {"measurement": "ratio", "setting": "BC2T R3Q", "result": 0.8},
      {"measurement": "ratio", "setting": "BC2T R3S", "result": 0.8}
    ]}
  ]
}
